# Literature values as cited in US11672857B2, “Compositions and methods for a multi-adjuvant only approach to immunoprophylaxis for preventing infections” (University of Southern California, priority 2017, dated 2023).
# System: T cell
# Details: compared with non-glycosylated ovalbumin produced in E. coli
molecule,measurement,value
"Yeast-mannosylated ovalbumin: recombinant ovalbumin mannosylated by yeast during production (Lam et al.) (protein, UniProt P01012 2-386, looked up, yeast mannosylation) Ovalbumin: GSIGAASMEFCFDVFKELKVHHANENIFYCPIAIMSALAMVYLGAKDSTRTQINKVVRFDKLPGFGDSIEAQCGTSVNVHSSLRDILNQITKPNDVYSFSLASRLYAEERYPILPEYLQCVKELYRGGLEPINFQTAADQARELINSWVESQTNGIIRNVLQPSSVDSQTAMVLVNAIVFKGLWEKAFKDEDTQAMPFRVTEQESKPVQMMYQIGLFRVASMASEKMKILELPFASGTMSMLVLLPDEVSGLEQLESIINFEKLTEWTSSNVMEERKIKVYLPRMKMEEKYNLTSVLMAMGITDVFSSSANLSGISSAESLKISQAVHAAHAEINEAGREVVGSAEAGVDAASVSEEFRADHPFLFCIKHIATNAVLFFGRCVSP",T cell proliferation,significantly greater T cell proliferation than did non-glycosylated ovalbumin produced in E. coli
